This experiment addresses SARS-CoV-2 original strain spike receptor-binding domain (S-RBD) (SARS-CoV-2, UniProt P0DTC2 320-537). The experiment is described as follows: SPR.

Experimental findings from publication PMC9158119 (2022) are described below.

B1: Nb-007 (VHH)
VHH: QLQLVESGGGLVQAGGSMRLSCAASISFSSFPMGWHRQAPGKQRELVAKTGIGGTAYDDSVKGRFTISRDNTKNTVYLQMNSLKVEDTAVYYCWGWRMNDYWGQGTQVTVSS
Turning to B1, the koff stood at 0.00103 s⁻¹.
